The values below come from patent US10174111 (NATIONAL UNIVERSITY CORPORATION KOCHI UNIVERSITY, dated 2019).

T1: human LSR (lipolysis stimulated lipoprotein receptor) (human, UniProt Q86X29 1-649)
T1 construct: Stood on human ovarian cancer cells (RMG-I, OVSAHO, JHOS2, OVISE; endogenous) or on SKOV3-L45 cells made to stably express LSR (construct not described); also called hLSR; human LSR protein (NP_991403.1)
T1 sequence: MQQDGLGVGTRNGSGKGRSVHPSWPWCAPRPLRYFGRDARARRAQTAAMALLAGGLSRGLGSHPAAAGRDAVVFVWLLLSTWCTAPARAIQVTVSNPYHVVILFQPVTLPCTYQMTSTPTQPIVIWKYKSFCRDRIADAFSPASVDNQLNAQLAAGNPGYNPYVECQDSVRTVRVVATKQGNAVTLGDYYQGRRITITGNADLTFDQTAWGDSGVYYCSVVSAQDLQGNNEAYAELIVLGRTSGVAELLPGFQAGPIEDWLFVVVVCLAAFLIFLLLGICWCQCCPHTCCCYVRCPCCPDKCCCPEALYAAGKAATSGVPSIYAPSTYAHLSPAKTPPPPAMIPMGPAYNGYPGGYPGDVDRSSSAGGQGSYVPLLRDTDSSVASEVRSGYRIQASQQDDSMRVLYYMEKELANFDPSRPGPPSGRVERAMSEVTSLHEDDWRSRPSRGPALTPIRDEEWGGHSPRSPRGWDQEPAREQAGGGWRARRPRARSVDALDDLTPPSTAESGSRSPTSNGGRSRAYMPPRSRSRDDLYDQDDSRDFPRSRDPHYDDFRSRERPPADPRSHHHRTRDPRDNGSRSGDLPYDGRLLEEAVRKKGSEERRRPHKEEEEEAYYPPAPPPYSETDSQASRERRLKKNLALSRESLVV

T2: human LSR with a V5/His tag fused to the C-terminal, on the LSR-expressing cell strain (human, UniProt Q86X29 1-649)
T2 construct: In panning Lot 1 a mammalian LSR-expressing cell strain was used whose construct is not described; also called human LSR-expressing chicken cell strain; not shown: V5/His tag of vector pcDNA3.1-V5/His-TOPO
T2 sequence: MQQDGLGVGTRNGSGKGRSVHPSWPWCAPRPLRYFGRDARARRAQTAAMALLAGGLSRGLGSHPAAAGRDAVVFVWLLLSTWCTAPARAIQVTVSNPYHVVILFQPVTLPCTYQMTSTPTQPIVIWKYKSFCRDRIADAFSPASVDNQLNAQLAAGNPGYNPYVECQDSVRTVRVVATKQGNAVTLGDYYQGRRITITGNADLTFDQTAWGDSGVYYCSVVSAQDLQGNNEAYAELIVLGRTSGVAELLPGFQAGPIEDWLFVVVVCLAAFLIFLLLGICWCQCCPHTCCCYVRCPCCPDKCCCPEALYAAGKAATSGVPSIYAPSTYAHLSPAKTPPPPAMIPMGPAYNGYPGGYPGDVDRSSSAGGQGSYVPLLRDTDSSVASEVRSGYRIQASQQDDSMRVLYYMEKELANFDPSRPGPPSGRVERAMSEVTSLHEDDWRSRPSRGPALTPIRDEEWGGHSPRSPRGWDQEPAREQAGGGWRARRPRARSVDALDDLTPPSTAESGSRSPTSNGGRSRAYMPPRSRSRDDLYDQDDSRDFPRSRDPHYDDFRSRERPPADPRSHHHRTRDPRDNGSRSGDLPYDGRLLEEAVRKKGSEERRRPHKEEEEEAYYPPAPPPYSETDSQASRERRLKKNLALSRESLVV

B1: anti-LSR mouse/chicken chimeric monoclonal antibody #1-25 (antibody, V domains shown)
VH: AVTLDESGGGLQTPGGALSLVCKASGFDFSSYEMQWVRQAPGKGLEWVTGISGSGSSTRYGSAVKGRATISRDNGQSTVRLQLNNLRAEDTGTYYCARGSTIDAWGHGTEVTVST
VL: ALTQPASVSANPGETVKITCSGGSSYAGSYYYGWYQQKSPGSAPVTVIYYNDQRPSDIPSRFSGSTSGSTATLTITGVQVEDEAVYICGTYEDSGGVFGAGTTLTV
notes: also called No. 1-25; anti-LSR antibody 1-25
B2: anti-LSR mouse/chicken chimeric monoclonal antibody #1-43 (antibody, V domains shown)
VH: AVTLDESGGGLQTPGGALSLVCEASGFDFSSHEMQWVRQAPGKGLEWVAGISGAGSSTRYGSAVQGRATISRDNGQSTVRLQLNNLRAEDTGTYYCARGSLIDAWGHGTEVIVST
VL: ALTQPASVSANPGETVKITCSGGGSYYGSYYYSWHQQKSPGSAPVTVIYENNQRPSDIPSRFSGSKSGSTATLTITGVQAEDEAVYFCGSYDSSAGLFGAGTTLTV
notes: also called No. 1-43; anti-LSR antibody 1-43
B3: anti-LSR mouse/chicken chimeric monoclonal antibody #27-6 (antibody, V domains shown)
VH: AVTLDESGGGLQMPGGALSLVCRASGFDFSSYEMQWIRQAPGKGLEWVAGISGAGSGTRYGSAVKGRATISRDNGQSTVRLQLNNLRAEDTGIYFCARSSNIDAWGHGTEVTVST
VL: ALTQPASVSANLGGTVKITCSGGGRYAESYYYGWYQQKSPGSTPVTVIYWNDKRPSNIPSRFSGSLSGSTNTLTITGVQVEDEAVYFCGSYEDSRSAFGAGTTLTV
notes: also called No. 27-6; anti-LSR antibody 27-6
B4: anti-LSR mouse/chicken chimeric monoclonal antibody #9-7 (antibody, V domains shown)
VH: AVTLDESGGGLQTPGGALSLVCKASGFTFSDYQMNWVRQAPSKGLEWVAGINGRSSWTDYGAAVKGRATISRDNGQSTVRLQLNNLRAEDTATYYCARGSSIDAWGHGTEVIVST
VL: ALTQPASVSANPGETVKITCSGGGSYYGSYYYGWYQQKSPGSAPVTMIYNNNNRPSNIPSRFSGSLSGSTNTLTITGVQADEAVYYCGSIDSNIAGVFGAGTTLTV
notes: also called anti-LSR antibody 9-7
B5: anti-LSR mouse/chicken chimeric monoclonal antibody #26-2 (antibody, V domains shown)
VH: AVTLDESGGGLQTPGGGLSLVCKGSGFTFSNYEMQWVRQAPGKGLEWVAGISGAGSTTRYGSAVQGRATISRDNGQSTVRLQLNNLRAEDTGTYYCARGSNIDGWGHGTEVIVST
VL: ALTQPSSVSANPGETVKITCSGGGRYAESYYYSWFQQKSPGSAPVTVIYWNDKRPSNIPSRFSGSLSGSTNTLTITGVRAEDEAVYYCGAYEDSSAGFGAGTTLTV
notes: also called No. 26-2; anti-LSR antibody 26-2
B6: SEQ ID NO 4 (scFv phage antibody clone, anti-LSR antibody 27-6 sequence) (scFv)
scFv: AVTLDESGGGLQMPGGALSLVCRASGFDFSSYEMQWIRQAPGKGLEWVAGISGAGSGTRYGSAVKGRATISRDNGQSTVRLQLNNLRAEDTGIYFCARSSNIDAWGHGTEVTVSTGGGGSGGGGSGGGGSDVALTQPASVSANLGGTVKITCSGGGRYAESYYYGWYQQKSPGSTPVTVIYWNDKRPSNIPSRFSGSLSGSTNTLTITGVQVEDEAVYFCGSYEDSRSAFGAGTTLTV
notes: the phage coat protein fusion is not described; also called 27-6 scFv
B7: SEQ ID NO 3 (scFv phage antibody clone, anti-LSR antibody 26-2 sequence) (scFv)
scFv: AVTLDESGGGLQTPGGGLSLVCKGSGFTFSNYEMQWVRQAPGKGLEWVAGISGAGSTTRYGSAVQGRATISRDNGQSTVRLQLNNLRAEDTGTYYCARGSNIDGWGHGTEVIVSTGGGGSGGGGSGGGGSDVALTQPSSVSANPGETVKITCSGGGRYAESYYYSWFQQKSPGSAPVTVIYWNDKRPSNIPSRFSGSLSGSTNTLTITGVRAEDEAVYYCGAYEDSSAGFGAGTTLTV
notes: the phage coat protein fusion is not described; also called 26-2 scFv
B8: SEQ ID NO 5 (scFv phage antibody clone, anti-LSR antibody 1-25 sequence) (scFv)
scFv: AVTLDESGGGLQTPGGALSLVCKASGFDFSSYEMQWVRQAPGKGLEWVTGISGSGSSTRYGSAVKGRATISRDNGQSTVRLQLNNLRAEDTGTYYCARGSTIDAWGHGTEVTVSTGGGGSGGGGSGGGGSDVALTQPASVSANPGETVKITCSGGSSYAGSYYYGWYQQKSPGSAPVTVIYYNDQRPSDIPSRFSGSTSGSTATLTITGVQVEDEAVYICGTYEDSGGVFGAGTTLTV
notes: the phage coat protein fusion is not described; also called 1-25 scFv
B9: SEQ ID NO 6 (scFv phage antibody clone, anti-LSR antibody 1-43 sequence) (scFv)
scFv: AVTLDESGGGLQTPGGALSLVCEASGFDFSSHEMQWVRQAPGKGLEWVAGISGAGSSTRYGSAVQGRATISRDNGQSTVRLQLNNLRAEDTGTYYCARGSLIDAWGHGTEVIVSTGGGGSGGGGSGGGGSDVALTQPASVSANPGETVKITCSGGGSYYGSYYYSWHQQKSPGSAPVTVIYENNQRPSDIPSRFSGSKSGSTATLTITGVQAEDEAVYFCGSYDSSAGLFGAGTTLTV
notes: the phage coat protein fusion is not described; also called 1-43 scFv

The first assay concerns the target T1, human LSR (lipolysis stimulated …). Briefly: FACS on RMG-I cells stained with various antibody concentrations, goat anti-mouse IgG-FITC, fit in GraphPad Prism. As for the experimental part:
Then, using an anti-LSR antibody (#1-25 or #9-7), immunohistochemical staining for LSR was carried out according to the ABC method. In the ovary serous adenocarcinoma tissue and the endometrial cancer tissue, LSR was highly expressed at the tumor sites. Immunohistochemical Staining Using Normal Frozen Tissue Array FDA standard human tissue microarrays (T6234701-2, Biochain) were immunohistochemically stained using the anti-LSR antibody #1-25. […] Calculation of Binding Constant Various concentration of various anti-LSR antibodies were reacted with RMG-I cells and they were stained using goat anti-mouse IgG-FITC (Southern Biotech, Birmingham, Ala., USA) and analyzed by a FACSCanto® II cytometer (Becton Dickinson). With regard to the fluorescence intensity of FITC, a KD value was analyzed using GraphPad Prism® Software Version 6.0 for Windows (GraphPad Software Inc., San Diego, Calif., USA). When the binding ability of the made LSR antibodies was analyzed by FACS®, antibodies having a high binding ability were obtained. The following analysis was carried out using two kinds of clones having the highest binding ability in them (FIG. 37B). […] Cell Cycle Analysis Ovarian clear cell adenocarcinoma (RMG-I) was seeded into a 6-well plate at 15,000 cells/well and incubated in a CO_2 incubator at 37° C. overnight. The culture supernatant was discarded and 100 µg/ml anti-LSR antibody or mouse IgG2a diluted with RPMI 1640 medium (containing 1% FBS and 1% penicillin-streptomycin) was added at 2 mL/well for each. After 96 hours, cell cycle analysis was carried out using the Cycle Test Plus® DNA Reagent kits (BD Biosciences). Western Blot Ovarian clear cell adenocarcinoma (RMG-I) was seeded into a 6-well plate at 15,000 cells/well and incubated in a CO_2 incubator at 37° C. overnight. The culture supernatant was discarded and 100 µg/ml anti-LSR antibody or mouse IgG2a diluted with RPMI 1640 medium (containing 1% FBS and 1% penicillin-streptomycin) was added at 2 mL/well for each.
B1: binding was characterised by a dissociation constant (Kd) of 2.03 nM.
For the molecule B2, the affinity, expressed as Kd, was 24.6 nM.
In the case of B3, binding was put at a Kd of 4.29 nM.
On the same count and under the same terms, the value for B4 was 2.52 nM.
Still for that read-out and setting: the value for B5 was 4.04 nM.

The next assay deals with T2, human LSR with a V5/His tag fused to …. The experiment in a line: cell panning of the scFv phage library on the LSR-expressing cell strain, reactivity confirmed by FACS, positive phage clones selected. As for the experimental part:
The scFv phage antibody library was added to a non-LSR-expressing cell strain to carry out absorption operation of nonspecific phages, and then was reacted with a LSR-expressing cell strain. In Lot 1, a mammalian cell strain was used and in Lot 2, cell panning was carried out using the chicken lymphoblast-like cell strain used for immunization. After washing with organic solvent, phages specifically binding to the LSR-expressing cell strain were recovered and then *Escherichia coli* were infected with it. Panning was carried out four times and then the reactivity of the library was confirmed by FACS analysis using the LSR-expressing cell strain. Phages from a library of which the reactivity had most increased were cloned, positive clones were selected, and then the sequences of six types of clones were determined (SEQ ID NOs: 1 to 6 and FIG. 9). For cell panning, a method described in "Giordano et al., Nat Med. 2001 November; 7(11): 1249-53" was followed.
As for B6, the binding result is listed as “binds”.
For the molecule B7, the binding result is on record as “binds”.
The same measure, in the same setting: the value for B8 was “binds”; that for B9 was “binds”.
